No end group written: not given here.
B1: cellulose-bound dodecapeptide 30 of the 13B8.2 VH sequence (linear form of CB2) (peptide)
peptide: TTFGVHWVRQSP
modifications: also: bound to cellulose membrane (Spot synthesis)
notes: also called VH peptide 30
B2: cellulose-bound dodecapeptide 29 of the 13B8.2 VL sequence (linear form of CB8) (peptide)
peptide: IYSYLAWYQQKQ
modifications: also: bound to cellulose membrane (Spot synthesis)
notes: also called VL peptide 29
B3: cellulose-bound dodecapeptide 29 of the 13B8.2 VH sequence (linear form of CB1) (peptide)
peptide: LTTFGVHWVRQS
modifications: also: bound to cellulose membrane (Spot synthesis)
notes: also called VH peptide 29

Target: T1, biotinylated recombinant human soluble CD4 (rhCD4, Repligen) (human, UniProt P01730 26-396, limits assumed, biotinylated (sites not given))
T1 construct: Soluble form, bought; biotinylated with a commercial reagent; also called biotinylated-rhCD4
Test: Spot: cellulose-bound dodecapeptide, 20 nM biotinylated rhCD4
Experimental: The saturated membrane was incubated with a 20 nM solution of biotinylated-rhCD4 for 2 h at 37° C. Bound biotinylated-rhCD4 was detected by incubating the membrane for 1 h at 37° with a 1:3000 solution of alkaline phosphatase-conjugated streptavidin (Sigma, St. Louis, Mo., USA) and subsequent addition of 5-bromo-4-chloro-3-indolyl phosphate substrate. […] In all cases, the reactivity of the spots was evaluated by scanning the membrane and measuring the intensities of the spots with the NIH image 1.61 software.
The anti-CD4 immunoreactivity of these peptides was assessed by incubating the membrane with biotinylated-rhCD4.

| Binder | binding result |
| --- | --- |
| B1 | binds |
| B2 | binds |
| B3 | binds |

— patent publication US20030113322A1 (published 2003)
